Data set [1] relates to HeLa Kyoto. The experiment in a line: solubility in G1/S (NP-40 vs SDS abundance) (log2 ratio); higher = more soluble. The conditions noted are these: cell cycle stage: G1/S.
In data set [2] the test system is HeLa Kyoto. The experiment in a line: solubility change mitosis vs G1/S (difference of NP-40 vs SDS log2 ratios) (log2 ratio difference); higher = more soluble in mitosis.
Data set [3] has as its system HeLa Kyoto. The data set can be described thus: melting temperature (median over replicates), in situ; higher = more thermally stable.
For data set [4], the system named is HeLa Kyoto. The experiment in a line: thermal stability score vs G1/S (z-score of summed log2 fold changes over temperatures); higher = more thermally stable than in G1/S.
The mark [5] stands for this setting: cell cycle stage: early G1 (4.5 h after nocodazole release).
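Throughout, for melting temperature (median over replicates), in situ: HeLa Kyoto cells synchronized by double thymidine or nocodazole block, proteins quantified by TMT10plex mass spectrometry, three independent biological replicates.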
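Throughout, for solubility change mitosis vs G1/S (difference of NP-40 vs SDS log2 ratios): synchronized HeLa Kyoto cells (double thymidine block for G1/S, nocodazole release for mitosis), protein amounts in NP-40 versus SDS lysates quantified by mass spectrometry, three biological replicates.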
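Throughout, for solubility in G1/S (NP-40 vs SDS abundance): HeLa Kyoto cells arrested at G1/S by double thymidine block, proteins quantified by TMT10plex mass spectrometry in mild NP-40 versus SDS extracts, three biological replicates.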
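Throughout, for thermal stability score vs G1/S (z-score of summed log2 fold changes over temperatures): synchronized HeLa Kyoto cells, proteins quantified by TMT10plex mass spectrometry, three biological replicates, mitosis taken 0.5 h after nocodazole release, G1/S directly after double thymidine block.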

On to “MAPSGLKAVVGEKILSGVIRSVKKDGEWKVLIMDHPSMRILSSCCKMSDILAEGITIVEDINKRREPIPSLEAIYLLSPTEKSVQALIKDFQGTPTFTYKAAHIFFTDTCPEPLFSELGRSRLAKVVKTLKEIHLAFLPYEAQVFSLDAPHSTYNLYCPFRAEERTRQLEVLAQQIATLCATLQEYPAIRYRKGPEDTAQLAHAVLAKLNAFKADTPSLGEGPEKTRSQLLIMDRAADPVSPLLHELTFQAMAYDLLDIEQDTYRYETTGLSEAREKAVLLDEDDDLWVELRHMHIADVSKKVTELLRTFCESKRLTTDKANIKDLSQILKKMPQYQKELNKYSTHLHLADDCMKHFKGSVEKLCSVEQDLAMGSDAEGEKIKDSMKLIVPVLLDAAVPAYDKIRVLLLYILLRNGVSEENLAKLIQHANVQAHSSLIRNLEQLGGTVTNPGGSGTSSRLEPRERMEPTYQLSRWTPVIKDVMEDAVEDRLDRNLWPFVSDPAPTASSQAAVSARFGHWHKNKAGIEARAGPRLIVYVMGGVAMSEMRAAYEVTRATEGKWEVLIGSSHILTPTRFLDDLKALDKKLEDIALP [STXBP2]”, for which the “solubility in G1/S (log2)” value in data set [1] is -0.0683. Besides, the “solubility change mitosis (log2)” value in data set [2] was -0.19. Besides, the melting temperature in data set [3] (cell cycle stage: G1/S) was 49.3 °C; in data set [3] (cell cycle stage: mitosis), 49.2 °C. The thermal stability score worked out at 0.25 in data set [4] (setting [5]) and 1.22 in data set [4] (cell cycle stage: mitosis).

In the case of “MAPSGSLAVPLAVLVLLLWGAPWTHGRRSNVRVITDENWRELLEGDWMIEFYAPWCPACQNLQPEWESFAEWGEDLEVNIAKVDVTEQPGLSGRFIITALPTIYHCKDGEFRRYQGPRTKKDFINFISDKEWKSIEPVSSWFGPGSVLMSSMSALFQLSMWIRTCHNYFIEDLGLPVWGSYTVFALATLFSGLLLGLCMIFVADCLCPSKRRRPQPYPYPSKKLLSESAQPLKKVEEEQEADEEDVSEEEAESKEGTNKDFPQNAIRQRSLGPSLATDKS [TMX1]”, the “solubility in G1/S (log2)” value in data set [1] is -0.0895. For the same sequence, the “solubility change mitosis (log2)” value in data set [2] is -0.034. In addition, the melting temperature was 54.7 °C in data set [3] (cell cycle stage: G1/S) and 55.9 °C in data set [3] (cell cycle stage: mitosis). The thermal stability score in data set [4] (setting [5]) is 0.556; in data set [4] (cell cycle stage: mitosis), 1.24.

With “MAPWPPKGLVPAMLWGLSLFLNLPGPIWLQPSPPPQSSPPPQPHPCHTCRGLVDSFNKGLERTIRDNFGGGNTAWEEENLSKYKDSETRLVEVLEGVCSKSDFECHRLLELSEELVESWWFHKQQEAPDLFQWLCSDSLKLCCPAGTFGPSCLPCPGGTERPCGGYGQCEGEGTRGGSGHCDCQAGYGGEACGQCGLGYFEAERNASHLVCSACFGPCARCSGPEESNCLQCKKGWALHHLKCVDIDECGTEGANCGADQFCVNTEGSYECRDCAKACLGCMGAGPGRCKKCSPGYQQVGSKCLDVDECETEVCPGENKQCENTEGGYRCICAEGYKQMEGICVKEQIPESAGFFSEMTEDELVVLQQMFFGIIICALATLAAKGDLVFTAIFIGAVAAMTGYWLSERSDRVLEGFIKGR [CRELD1]”, the “solubility in G1/S (log2)” value in data set [1] was -0.215. Moreover, in data set [2], the “solubility change mitosis (log2)” value was -0.0647. Further, the melting temperature was determined as 53.8 °C in data set [3] (cell cycle stage: G1/S) and 53 °C in data set [3] (cell cycle stage: mitosis). Also, the thermal stability score came out at 0.91 in data set [4] (setting [5]) and 1.48 in data set [4] (cell cycle stage: mitosis).

“MAPYSLLVTRLQKALGVRQYHVASVLCQRAKVAMSHFEPNEYIHYDLLEKNINIVRKRLNRPLTLSEKIVYGHLDDPASQEIERGKSYLRLRPDRVAMQDATAQMAMLQFISSGLSKVAVPSTIHCDHLIEAQVGGEKDLRRAKDINQEVYNFLATAGAKYGVGFWKPGSGIIHQIILENYAYPGVLLIGTDSHTPNGGGLGGICIGVGGADAVDVMAGIPWELKCPKVIGVKLTGSLSGWSSPKDVILKVAGILTVKGGTGAIVEYHGPGVDSISCTGMATICNMGAEIGATTSVFPYNHRMKKYLSKTGREDIANLADEFKDHLVPDPGCHYDQLIEINLSELKPHINGPFTPDLAHPVAEVGKVAEKEGWPLDIRVGLIGSCTNSSYEDMGRSAAVAKQALAHGLKCKSQFTITPGSEQIRATIERDGYAQILRDLGGIVLANACGPCIGQWDRKDIKKGEKNTIVTSYNRNFTGRNDANPETHAFVTSPEIVTALAIAGTLKFNPETDYLTGTDGKKFRLEAPDADELPKGEFDPGQDTYQHPPKDSSGQHVDVSPTSQRLQLLEPFDKWDGKDLEDLQILIKVKGKCTTDHISAAGPWLKFRGHLDNISNNLLIGAINIENGKANSVRNAVTQEFGPVPDTARYYKKHGIRWVVIGDENYGEGSSREHAALEPRHLGGRAIITKSFARIHETNLKKQGLLPLTFADPADYNKIHPVDKLTIQGLKDFTPGKPLKCIIKHPNGTQETILLNHTFNETQIEWFRAGSALNRMKELQQ [ACO2]”: the “solubility in G1/S (log2)” value in data set [1] was 0.183. Further, in data set [2], the “solubility change mitosis (log2)” value is -0.179. In addition, the melting temperature in data set [3] (cell cycle stage: G1/S) and in data set [3] (cell cycle stage: mitosis) was 51.3 °C in each case. In addition, the thermal stability score in data set [4] (setting [5]) is 0.706; in data set [4] (cell cycle stage: mitosis), 0.579.

For “MAQAKINAKANEGRFCRSSSMADRSSRLLESLDQLELRVEALREAATAVEQEKEILLEMIHSIQNSQDMRQISDGEREELNLTANRLMGRTLTVEVSVETIRNPQQQESLKHATRIIDEVVNKFLDDLGNAKSHLMSLYSACSSEVPHGPVDQKFQSIVIGCALEDQKKIKRRLETLLRNIENSDKAIKLLEHSKGAGSKTLQQNAESRFN [BAG2]”, the “solubility in G1/S (log2)” value in data set [1] came out at 0.345. Also, in data set [2], the “solubility change mitosis (log2)” value was 0.474. Also, the melting temperature in data set [3] (cell cycle stage: G1/S) and in data set [3] (cell cycle stage: mitosis) was 50.9 °C throughout. Moreover, the thermal stability score was -2.02 in data set [4] (setting [5]) and -3.48 in data set [4] (cell cycle stage: mitosis).

Consider “MAQCVQSVQELIPDSFVPCVAALCSDEAERLTRLNHLSFAELLKPFSRLTSEVHMRDPNNQLHVIKNLKIAVSNIVTQPPQPGAIRKLLNDVVSGSQPAEGLVANVITAGDYDLNISATTPWFESYRETFLQSMPALDHEFLNHYLACMLVASSSEAEPVEQFSKLSQEQHRIQHNSDYSYPKWFIPNTLKYYVLLHDVSAGDEQRAESIYEEMKQKYGTQGCYLLKINSRTSNRASDEQIPDPWSQYLQKNSIQNQESYEDGPCTITSNKNSDNNLLSLDGLDNEVKDGLPNNFRAHPLQLEQSSDPSNSIDGPDHLRSASSLHETKKGNTGIIHGACLTLTDHDRIRQFIQEFTFRGLLPHIEKTIRQLNDQLISRKGLSRSLFSATKKWFSGSKVPEKSINDLKNTSGLLYPPEAPELQIRKMADLCFLVQHYDLAYSCYHTAKKDFLNDQAMLYAAGALEMAAVSAFLQPGAPRPYPAHYMDTAIQTYRDICKNMVLAERCVLLSAELLKSQSKYSEAAALLIRLTSEDSDLRSALLLEQAAHCFINMKSPMVRKYAFHMILAGHRFSKAGQKKHALRCYCQAMQVYKGKGWSLAEDHINFTIGRQSYTLRQLDNAVSAFRHILINESKQSAAQQGAFLREYLYVYKNVSQLSPDGPLPQLPLPYINSSATRVFFGHDRRPADGEKQAATHVSLDQEYDSESSQQWRELEEQVVSVVNKGVIPSNFHPTQYCLNSYSDNSRFPLAVVEEPITVEVAFRNPLKVLLLLTDLSLLWKFHPKDFSGKDNEEVKQLVTSEPEMIGAEVISEFLINGEESKVARLKLFPHHIGELHILGVVYNLGTIQGSMTVDGIGALPGCHTGKYSLSMSVRGKQDLEIQGPRLNNTKEEKTSVKYGPDRRLDPIITEEMPLLEVFFIHFPTGLLCGEIRKAYVEFVNVSKCPLTGLKVVSKRPEFFTFGGNTAVLTPLSPSASENCSAYKTVVTDATSVCTALISSASSVDFGIGTGSQPEVIPVPLPDTVLLPGASVQLPMWLRGPDEEGVHEINFLFYYESVKKQPKIRHRILRHTAIICTSRSLNVRATVCRSNSLENEEGRGGNMLVFVDVENTNTSEAGVKEFHIVQVSSSSKHWKLQKSVNLSENKDTKLASREKGKFCFKAIRCEKEEAATQSSEKYTFADIIFGNEQIISSASPCADFFYRSLSSELKKPQAHLPVHTEKQSTEDAVRLIQKCSEVDLNIVILWKAYVVEDSKQLILEGQHHVILRTIGKEAFSYPQKQEPPEMELLKFFRPENITVSSRPSVEQLSSLIKTSLHYPESFNHPFHQKSLCLVPVTLLLSNCSKADVDVIVDLRHKTTSPEALEIHGSFTWLGQTQYKLQLKSQEIHSLQLKACFVHTGVYNLGTPRVFAKLSDQVTVFETSQQNSMPALIIISNV [TRAPPC8]”, for which, in data set [1], the “solubility in G1/S (log2)” value is -0.261. The “solubility change mitosis (log2)” value in data set [2] is -0.114. Further, the melting temperature in data set [3] (cell cycle stage: G1/S) was 51.5 °C; in data set [3] (cell cycle stage: mitosis), 49.9 °C. For the same sequence, the thermal stability score in data set [4] (setting [5]) was -0.214; in data set [4] (cell cycle stage: mitosis), -0.392.

Values taken from the supplement of paper PMC5998384.
